According to patent publication US20180237502A1 (INTEGRATED BIOTHERAPEUTICS, published 2018):

What was measured:
MARV GPdTM [1] = target: T1, MARV GPdTM (Marburg virus (MARV), UniProt P35253 19-637)
T1 sequence: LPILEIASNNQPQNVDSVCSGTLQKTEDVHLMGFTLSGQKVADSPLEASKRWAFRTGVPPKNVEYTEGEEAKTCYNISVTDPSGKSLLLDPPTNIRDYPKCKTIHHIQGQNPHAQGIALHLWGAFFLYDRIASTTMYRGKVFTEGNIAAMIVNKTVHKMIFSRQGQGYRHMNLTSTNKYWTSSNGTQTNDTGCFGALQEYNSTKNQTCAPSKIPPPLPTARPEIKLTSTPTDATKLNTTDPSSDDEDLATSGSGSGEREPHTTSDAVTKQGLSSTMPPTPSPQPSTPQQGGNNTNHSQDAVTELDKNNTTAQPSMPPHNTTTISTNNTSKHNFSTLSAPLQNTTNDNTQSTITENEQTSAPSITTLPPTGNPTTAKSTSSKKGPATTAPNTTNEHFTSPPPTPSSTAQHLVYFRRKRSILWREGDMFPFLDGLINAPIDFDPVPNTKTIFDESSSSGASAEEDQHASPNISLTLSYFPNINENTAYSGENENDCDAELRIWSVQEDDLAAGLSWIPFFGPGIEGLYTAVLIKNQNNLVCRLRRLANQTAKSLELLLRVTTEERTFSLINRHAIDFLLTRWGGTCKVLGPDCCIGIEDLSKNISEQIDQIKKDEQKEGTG

EBOV GPdTM [2] = target: T2, EBOV GPdTM (Ebola virus (EBOV), UniProt Q05320 33-637); assay: ELISA, purified GPdTM immobilized, serial dilutions of purified mouse mAb
T2 construct: also called Ebola virus glycoprotein GPdTM
T2 sequence: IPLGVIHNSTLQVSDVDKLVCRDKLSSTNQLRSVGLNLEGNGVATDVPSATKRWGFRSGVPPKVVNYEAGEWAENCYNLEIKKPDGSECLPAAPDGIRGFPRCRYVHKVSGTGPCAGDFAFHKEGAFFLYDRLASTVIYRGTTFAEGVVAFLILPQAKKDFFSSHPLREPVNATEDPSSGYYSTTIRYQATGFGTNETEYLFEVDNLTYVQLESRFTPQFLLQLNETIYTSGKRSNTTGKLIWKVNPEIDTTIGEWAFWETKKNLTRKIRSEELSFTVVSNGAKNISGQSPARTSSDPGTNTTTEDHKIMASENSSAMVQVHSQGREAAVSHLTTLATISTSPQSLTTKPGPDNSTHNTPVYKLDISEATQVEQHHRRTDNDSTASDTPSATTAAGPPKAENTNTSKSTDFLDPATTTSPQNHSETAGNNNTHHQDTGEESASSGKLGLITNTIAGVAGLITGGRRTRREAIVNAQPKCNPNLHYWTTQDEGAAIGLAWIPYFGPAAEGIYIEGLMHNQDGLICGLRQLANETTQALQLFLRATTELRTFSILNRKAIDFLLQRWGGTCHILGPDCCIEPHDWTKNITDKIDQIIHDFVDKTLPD

EBOV GPdTM [3] = target: T2, EBOV GPdTM
RESTV GPdTM [4] = target: T3, RESTV GPdTM (Reston virus (RESTV), UniProt Q66799 34-638)
T3 sequence: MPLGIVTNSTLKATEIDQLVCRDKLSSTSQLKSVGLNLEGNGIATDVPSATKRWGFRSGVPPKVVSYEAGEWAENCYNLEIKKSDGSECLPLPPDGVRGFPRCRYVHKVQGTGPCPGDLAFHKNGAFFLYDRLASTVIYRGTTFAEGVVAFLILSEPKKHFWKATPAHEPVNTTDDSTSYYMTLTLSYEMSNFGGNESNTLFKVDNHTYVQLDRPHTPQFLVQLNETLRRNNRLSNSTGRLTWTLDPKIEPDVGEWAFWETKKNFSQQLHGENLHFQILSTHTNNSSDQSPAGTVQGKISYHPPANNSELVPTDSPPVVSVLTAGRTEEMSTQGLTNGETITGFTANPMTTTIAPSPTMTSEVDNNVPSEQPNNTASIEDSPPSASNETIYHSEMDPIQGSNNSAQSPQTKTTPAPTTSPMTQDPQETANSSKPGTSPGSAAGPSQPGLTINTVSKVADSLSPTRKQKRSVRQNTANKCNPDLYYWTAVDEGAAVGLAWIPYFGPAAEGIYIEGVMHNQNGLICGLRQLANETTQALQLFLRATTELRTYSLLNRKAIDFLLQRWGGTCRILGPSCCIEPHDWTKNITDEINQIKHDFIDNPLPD

MARV GPdTM [5] = target: T1, MARV GPdTM; assay: ELISA, purified GPdTM immobilized, serial dilutions of purified mouse mAb
RESTV GPdTM [6] = target: T3, RESTV GPdTM; assay: as above

B1: murine monoclonal antibody 21B2 (antibody, V domains shown)
VH: EVQLQESGAELVRPGASVTLSCKTSGYTFTDYEMHWVKQTPVHGLEWIGAIDPETGGTAYNQKFKGKATLTADKSSSTAYMELSRLTSEDSAVYYCTGNYATDYWGQGTSVTVSS
VL: DIVMSQSPSSLAVSAGEKVTMSCKSSQSLFNSRSRKNYLAWYQLKPGQSPKLLIYWASTRESGVPDRFTGSGSGTDFTLTISSVQAEDLAVYYCKQSNYLWTFGGGTKLEIKR
notes: also called m21B2
MARV GPdTM [1]
  EC50: 0.0688 µg/mL
EBOV GPdTM [2]
  binding result: no binding

B2: murine monoclonal antibody 2D8 (antibody, V domains shown)
VH: EVQLQESGGELVRPGTSVKISCKASGYTFTNFWLGWIKERPGHGLEWIGDIYPGGHYTNYNENFKGKATLTADTSSNTAYMQVSSLTSEDSAVYFCFTQYYDMDYWGQGTSVTVSS
VL: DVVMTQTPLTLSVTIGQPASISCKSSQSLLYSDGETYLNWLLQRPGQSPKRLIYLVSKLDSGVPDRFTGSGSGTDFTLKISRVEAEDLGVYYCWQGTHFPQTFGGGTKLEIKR
MARV GPdTM [1]
  EC50: 0.0445 µg/mL
EBOV GPdTM [3]
  EC50: > 10 µg/mL

B3: murine monoclonal antibody 4B8 (antibody, V domains shown)
VH: EVQLQESGPGILQPSQTLSLTCSFSGFSLRTLGMGVGWIRQSSGKGLEWLAHIWWSDENYYNPALKSRLTISKDTSKNQVFLRIANVDTAETATYYCARIAYDGYFDYWGQGTSLTVSS
VL: KFPSQLLLLLLFGIPGDRVTITCKASEDIYNRLAWYQQKPGNAPRLLISGATSLETGVPSRFSGSGSGKDYTLSITSLQTEDVATYYCQQYWTTPWTFGGGTKLEIKR
notes: also called m4B8
RESTV GPdTM [4]
  EC50: 0.157 µg/mL
MARV GPdTM [5]
  binding result: no binding

B4: murine monoclonal antibody 8C4 (antibody, V domains shown)
VH: EVQLQESGPELKKPGETVKISCKASGYTFTTYGMSWVKQAPGKGLKWMGRINTYSGVPTYADEFKGRFAFSLENSASTAYLQINNLKNEDTATYFCARGDGGHWFANWGQGTLVTVSA
VL: DIQMTQSPSSLSASLGGKVTITCKASQDINKNIAWYQHKPGKGPRLLIWYKSALQPGIPSRFSGSGSGRDYSFSISNLEPEDIATYSCLQYDNLPPTFGGGTKLEIKR
notes: also called m8C4
EBOV GPdTM [3]
  EC50: 0.26 µg/mL
MARV GPdTM [5]
  binding result: no binding
RESTV GPdTM [6]
  binding result: no binding

B5: murine monoclonal antibody 16G8 (antibody, V domains shown)
VH: EVQLQESGPGLVKPGASVKISCKASGYSFTGYYMNWVKQSPEKSLEWIGEINPSTGGTTYNQKFKAKATLTVDKSSSTAYMQLKSLTSEDSAVYYCVRYSHYYGSGSWYFDVWGTGTTVTVSS
VL: DIQMTQSPASLSASVGETVTITCRASENIYSNLAWYQQKQGKSPQLLVNAATNLADGVPSRFSGSGSGTQFSLKINSLQPEDFGSYYCQHFYVTPYMFGSGTKLEIKR
notes: also called m16G8
EBOV GPdTM [3]
  EC50: > 10 µg/mL
RESTV GPdTM [4]
  EC50: > 10 µg/mL
MARV GPdTM [5]
  binding result: no binding

B6: murine monoclonal antibody 17C6 (antibody, V domains shown)
VH: EVQLQESGPGLVQPSQSLSITCTVSGFSLTSYGVHWVRQSPGKGLEWLGVIWSGGSTDYNAAFISRLSISKDNSKSQVFFKMNSLQADDTAIYYCARNWFDYDNYYSMDYWGQGTSVTVSS
VL: DIQMTQTTSSLSASLGDRVTISCRASQDISNYLNWYQQKPDGTVKLLIYYTSRLHSGVPSRFSGSGSGTDFSLTISNQEPEDIATYYCQQYSNLPWTFGGGTKLEIKR
EBOV GPdTM [3]
  EC50: 0.04 µg/mL
RESTV GPdTM [4]
  EC50: 1.56 µg/mL
